Results: patent US20010029035A1, “Oligonucleotide conjugates” (priority 2000, published 2001)

What was measured:
[1] = in vivo; cited from earlier work
[2] = system: SSTR-positive CA20948 pancreas tumors; experiment: Organ distribution study in CA 20948 tumor-bearing Lewis rats; conditions: rat, in vivo
Procedure: As explained in more detail below, PNA peptide conjugates were synthesized by means of Boc chemistry.
Organ distribution studies of the conjugate were carried out with tumor-bearing rats. […] The tumor cells are thawed, washed with PBS and suspended carefully. The cell suspension was transplanted subcutaneously into the flank of male Lewis rats (220-250 g) (about 2×10^6 cells in 0.1 ml). […] After 1 hour, the animals were killed and dissected. Various organs/tissue samples (tumor, blood, heart, lung, liver, stomach, kidney, spleen, muscle) were removed, weighed and the activity in the gamma counter was determined. In this way, % ID/g values could be obtained. The competitive uptake could be examined by injection of 100 μg octreotide, 30 min. prior to the application of the radioactive octreotide derivative.

Compound | biological half-life [1] | organ distribution compared with 3-Tyr octreotide (in words) [2] | uptake into the tumor tissue (in words) [2]
C[C@@H](O)[C@@H]1NC(=O)[C@H](CCCCN)NC(=O)[C@@H](Cc2c[nH]c3ccccc23)NC(=O)[C@H](Cc2ccccc2)NC(=O)[C@@H](NC(=O)[C@H](N)Cc2ccccc2)CSSC[C@@H](C(=O)N[C@H](CO)[C@@H](C)O)NC1=O [Octreotide] | about 90 min. | – | –
Cc1cn(CC(=O)N(CCNC(=O)CN(CCNC(=O)CN(CCNC(=O)CN(CCNC(=O)CN(CCNC(=O)CN(CCNC(=O)CN(CCNC(=O)CN(CCNC(=O)CN(CCNC(=O)CN(CCNC(=O)CN(CCNC(=O)CN(CCNC(=O)[C@@H](N)Cc2ccc(O)c(I)c2)C(=O)Cn2cnc3c(N)ncnc32)C(=O)Cn2cnc3c(=O)[nH]c(N)nc32)C(=O)Cn2ccc(N)nc2=O)C(=O)Cn2cnc3c(=O)[nH]c(N)nc32)C(=O)Cn2cc(C)c(=O)[nH]c2=O)C(=O)Cn2cnc3c(=O)[nH]c(N)nc32)C(=O)Cn2ccc(N)nc2=O)C(=O)Cn2cnc3c(=O)[nH]c(N)nc32)C(=O)Cn2ccc(N)nc2=O)C(=O)Cn2ccc(N)nc2=O)C(=O)Cn2cnc3c(N)ncnc32)CC(=O)NCCN(CC(=O)NCCN(CC(=O)NCCN(CC(=O)N[C@H](Cc2ccccc2)C(=O)N[C@H]2CSSC[C@@H](C(=O)N[C@H](C(=O)O)[C@@H](C)O)NC(=O)[C@H]([C@@H](C)O)NC(=O)[C@H](CCCCN)NC(=O)[C@@H](Cc3c[nH]c4ccccc34)NC(=O)[C@H](Cc3ccccc3)NC2=O)C(=O)Cn2ccc(N)nc2=O)C(=O)Cn2ccc(N)nc2=O)C(=O)Cn2ccc(N)nc2=O)c(=O)[nH]c1=O [PNA conjugate] | – | approximately the same concentration in tumor and pancreas | selective uptake, which could be inhibited with an excess of octreotide
